Paper PMC6265462

Target: T1, Pho7-DBD (279-339) (Schizosaccharomyces pombe, UniProt O13658 279-339)
T1 sequence: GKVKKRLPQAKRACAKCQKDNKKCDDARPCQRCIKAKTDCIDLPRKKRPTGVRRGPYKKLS
Experiment: crystal structure

B1: tgp1 crystal duplex (dsDNA)
DNA 1: TCCTTCGGACATTCAAATCA
DNA 2: GATTTGAATGTCCGAAGGAT
- binding result: binds
